Target: purified RecBCD protein (Plasmid-Safe ExoV, Epicentre) (E. coli) (UniProt P08394)
Assay: cell-based or functional assay

UniProt P08394, sequence (P08394 2-1180 limits assumed, chain 1 of 3): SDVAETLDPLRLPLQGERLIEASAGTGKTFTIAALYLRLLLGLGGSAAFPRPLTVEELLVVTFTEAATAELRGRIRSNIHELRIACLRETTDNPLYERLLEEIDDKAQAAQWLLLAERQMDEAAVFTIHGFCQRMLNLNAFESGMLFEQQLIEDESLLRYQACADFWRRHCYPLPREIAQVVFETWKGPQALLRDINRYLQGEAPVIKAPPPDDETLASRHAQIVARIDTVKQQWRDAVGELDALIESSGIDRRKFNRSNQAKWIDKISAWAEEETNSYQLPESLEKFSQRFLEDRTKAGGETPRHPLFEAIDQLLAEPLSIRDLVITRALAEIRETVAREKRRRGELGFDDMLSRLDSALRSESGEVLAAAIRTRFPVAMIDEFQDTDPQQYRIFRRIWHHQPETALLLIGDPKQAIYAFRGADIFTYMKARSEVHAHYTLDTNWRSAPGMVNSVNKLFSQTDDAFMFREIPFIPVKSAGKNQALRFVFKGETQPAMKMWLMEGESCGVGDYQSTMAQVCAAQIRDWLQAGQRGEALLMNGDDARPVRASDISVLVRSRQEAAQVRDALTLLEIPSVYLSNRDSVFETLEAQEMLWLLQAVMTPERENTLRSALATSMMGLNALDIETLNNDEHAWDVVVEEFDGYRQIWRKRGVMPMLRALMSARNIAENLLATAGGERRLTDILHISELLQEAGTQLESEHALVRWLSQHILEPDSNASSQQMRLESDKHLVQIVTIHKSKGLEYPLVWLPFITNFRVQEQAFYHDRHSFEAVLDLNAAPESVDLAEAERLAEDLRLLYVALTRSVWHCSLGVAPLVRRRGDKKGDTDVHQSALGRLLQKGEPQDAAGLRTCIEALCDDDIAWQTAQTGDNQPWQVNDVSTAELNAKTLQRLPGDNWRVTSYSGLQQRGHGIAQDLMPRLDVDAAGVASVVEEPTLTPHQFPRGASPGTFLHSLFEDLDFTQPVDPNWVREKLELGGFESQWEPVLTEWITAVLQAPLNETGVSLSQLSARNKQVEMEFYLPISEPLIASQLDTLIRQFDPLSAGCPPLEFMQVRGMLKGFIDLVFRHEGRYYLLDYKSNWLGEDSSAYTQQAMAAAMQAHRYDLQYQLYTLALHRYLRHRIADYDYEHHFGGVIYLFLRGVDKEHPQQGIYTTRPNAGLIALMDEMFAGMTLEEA
UniProt P08394, sequence (P07648 whole entry, chain 2 of 3, further chain): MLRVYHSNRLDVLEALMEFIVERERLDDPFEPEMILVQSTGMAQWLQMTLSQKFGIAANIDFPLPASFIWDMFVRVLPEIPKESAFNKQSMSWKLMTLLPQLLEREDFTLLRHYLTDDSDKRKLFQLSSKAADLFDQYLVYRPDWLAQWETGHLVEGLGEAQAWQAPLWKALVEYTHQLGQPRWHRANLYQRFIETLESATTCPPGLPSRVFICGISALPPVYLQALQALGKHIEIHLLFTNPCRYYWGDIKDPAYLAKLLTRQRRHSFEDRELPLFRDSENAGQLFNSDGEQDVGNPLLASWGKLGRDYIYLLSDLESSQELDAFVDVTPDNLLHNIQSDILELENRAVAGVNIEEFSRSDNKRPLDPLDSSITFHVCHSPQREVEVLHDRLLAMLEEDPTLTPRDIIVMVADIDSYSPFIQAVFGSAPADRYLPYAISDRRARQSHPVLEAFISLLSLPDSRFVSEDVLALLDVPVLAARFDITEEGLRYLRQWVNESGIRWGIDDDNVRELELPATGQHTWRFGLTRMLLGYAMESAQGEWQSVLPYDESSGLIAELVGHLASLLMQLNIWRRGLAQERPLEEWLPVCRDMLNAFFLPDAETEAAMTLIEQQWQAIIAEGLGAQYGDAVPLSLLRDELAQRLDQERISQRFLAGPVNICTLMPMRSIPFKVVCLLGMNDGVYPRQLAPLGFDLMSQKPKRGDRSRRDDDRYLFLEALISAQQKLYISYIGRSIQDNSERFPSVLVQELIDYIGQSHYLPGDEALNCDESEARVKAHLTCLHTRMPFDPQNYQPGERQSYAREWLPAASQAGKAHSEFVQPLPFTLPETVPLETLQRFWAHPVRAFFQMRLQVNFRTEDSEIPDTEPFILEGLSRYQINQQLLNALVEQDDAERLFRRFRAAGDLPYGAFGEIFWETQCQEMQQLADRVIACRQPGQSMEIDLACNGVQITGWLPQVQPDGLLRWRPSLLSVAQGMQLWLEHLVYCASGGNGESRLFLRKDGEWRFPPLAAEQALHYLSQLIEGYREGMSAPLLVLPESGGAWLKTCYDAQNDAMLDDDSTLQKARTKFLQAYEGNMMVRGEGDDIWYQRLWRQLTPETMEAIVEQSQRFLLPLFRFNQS
UniProt P08394, sequence (P04993 whole entry, chain 3 of 3, further chain): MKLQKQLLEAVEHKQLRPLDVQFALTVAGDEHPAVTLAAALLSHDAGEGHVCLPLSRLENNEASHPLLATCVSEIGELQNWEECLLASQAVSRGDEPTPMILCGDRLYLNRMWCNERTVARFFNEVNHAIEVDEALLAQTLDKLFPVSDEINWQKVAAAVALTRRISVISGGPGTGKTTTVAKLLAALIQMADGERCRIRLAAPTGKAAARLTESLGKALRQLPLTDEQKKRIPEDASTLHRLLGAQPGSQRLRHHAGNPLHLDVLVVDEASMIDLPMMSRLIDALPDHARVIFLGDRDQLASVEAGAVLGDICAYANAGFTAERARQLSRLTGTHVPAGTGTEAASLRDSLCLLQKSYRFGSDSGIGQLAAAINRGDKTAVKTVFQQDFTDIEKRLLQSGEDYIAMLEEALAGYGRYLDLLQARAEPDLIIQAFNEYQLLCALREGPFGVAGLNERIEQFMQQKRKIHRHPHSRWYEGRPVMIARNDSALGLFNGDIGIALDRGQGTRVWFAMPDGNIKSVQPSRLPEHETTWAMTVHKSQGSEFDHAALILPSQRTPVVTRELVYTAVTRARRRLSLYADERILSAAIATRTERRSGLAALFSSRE

Substance “GamS (short form of the bacteriophage lambda Gam protein, expressed from pLDE136, partially purified MonoQ pool) (from UniProt P03702 1-98)” has a specific activity of GamS in the Gam-mediated RecBCD inhibition assay of 160 to 200 U/µg.
